According to patent US20060167229A1, “Biologically active peptide conjugates” (priority 2002, published 2006):
“And” between values parts separate entries of the source, which are not always exact repeats. Identical values can stand only once.

Tests used:
T lymphocyte = T lymphocyte transformation test (ConA-stimulated spleen cells of treated mice, MTT); format: in vivo, BALB/c mice; conditions: healthy mice, saline 1.3 ± 0.1
Method in brief: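 Mice (10/group) received substances i.p. in 0.5 ml saline daily for 15 days; next day splenocytes (1×10^6/ml) were cultured 66 h at 37 °C with or without ConA (100 μg/ml stock added). MTT was added for 4 h and OD570 (ref 630 nm) read; stimulation index = mean ConA OD / mean control OD per mouse.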

interferon (IFN) = tested on: interferon (IFN); set-up: species or system BALB/c mice; conditions: mouse, in vivo, ip
spleen = assay: Immunity organ weight test, spleen index; format: in vivo, BALB/c mice; conditions: healthy mice, saline 0.53 ± 0.05
Procedure: One day after the last test substance administration (day 16), the liver, spleen, and thymus gland were separated and blotted dry with filter paper and weighed. The phagocytosis index α was calculated as below: α=(^3√{square root over ( )}K)(W÷WLS)
Spleen index (%)=(spleen weight/body weight)×100%

[1] = tested on: Sheep red blood cells (SRBC); assay: Humoral immunity (SRBC hemolysis index) of mice bearing transplanted B16 melanoma; format: in vivo, C57BL/6 mice; set-up: key: index = (OD540 sample ÷ reference OD540) × 500; conditions: controls: rhIL-2, rmIFN-γ 3 × 10^5 IU/kg, cyclophosphamide 20 mg/kg, saline 19.0 ± 9.1
Procedure: Intraperitoneal injection, once per day. […] Treatment of all groups with testing substance lasted for 30 days or until the animal died unless otherwise specified.
Stock B16 mouse melanoma cells were incubated in DMEM/F12 medium supplemented with 10% fetal bovine serum, 37° C./5% CO2 for 72 hrs, then washed 3-4 times with Hank's solution. The cell concentration was adjusted to 1×10^5 per ml with Hank's solution and 0.1 ml of the cell suspension was injected via the tail vein into the testing mice to generate the B16 melanoma bearing animal model. Treatment with test substance started as described in section Method 1.
Sheep red blood cells (SRBC) were prepared by collecting blood from the cervical vein and put into a sterile flask with glass beads. The flask was shaken for 3 minutes and the blood then mixed with Alsever solution (glucose 2.05 g, NaCl 0.4 g, […] 0.8 g, adjust to 100 ml with distilled water) and stored at 4° C. Immediately before use, samples were centrifuged at 130 g, 5 minutes to collect the SRBC. The cells were washed two times by re-suspension and centrifugation in normal saline. Then the cell pellet was collected by centrifugation at 180 g for 10 minutes and re-suspended in saline to make the final working SRBC suspension, 2% (v/v).
Complement was prepared by adding 10 volumes of fresh Cavy serum into one volume centrifuge packed SRBC, and then gently shaken for 30 minutes at 4° C. The SRBC was removed by centrifugation at 200 g for 10 minutes. 10 volumes of normal saline were added to obtain the working complement solution.
On the testing animals, on the 27th date of test substance treatment, 0.2 ml of the working SRBC cell suspension was injected into each animal to raise antibody. On the day after the last test substance administration, blood was collected from the eye canthus and left at room temperature for one hour for serum exudation. After centrifugation at 200 g for 10 minutes, the collected serum was diluted by 500 times with normal saline.
To 1 ml diluted mouse serum of each mouse, 0.5 ml SRBC suspension was added. Ice cold. Then 1 ml working complement solution was added and incubated at 37° C. water bath for 10 minutes. Reactions were terminated by ice cold. Samples were then centrifuged at 200 g for 10 minutes to obtain the supernatant.
To 1 ml of this supernatant, 3 ml Drabkin solution was added and left at room temperature for 10 minutes. OD540 nm was obtained.
Reference OD540 nm was obtained by mixing 0.25 ml SRBC suspension with Drabkin solution to 4 ml and placed at room temperature for 10 minutes before OD540 nm was taken. Hemolysis index=(OD540 nm of test sample÷reference OD540 nm)×500 6.2 After the Humoral Immunity Study, the Mice were Killed by Cervical Vertebra Dislocation. Postmortem Examination of the Animals was Performed. The Pathological Changes were Recorded, and the Numbers of Melanoma Lung Metastasis Foci Were Counted. Results

[2] = peptide 0.5 μg/kg/day i.p. 15 days (IFN-γ, IL-2 3×10^5 IU/kg/day)

B1: IFN-γ: recombinant mouse IFN-γ (rmIFN-γ), Beijing Biotech Inc.; positive control (protein, UniProt P01580 23-155, looked up)
Interferon gamma: HGTVIESLESLNNYFNSSGIDVEEKSLFLDIWRNWQKDGDMKILQSQIISFYLRLFEVLKDNQAISNNISVIESHLITTFFSNSKAKKDAFMSIAKFEVNNPQVQRQAFNELIRVVHQLLPESSLRKRKRSRC
X ± SD (stimulation index) (T lymphocyte; [2]): 1.6 ± 0.2
X ± SD (stimulation index) (T lymphocyte; peptide 5 μg/kg/day i.p. 15 days (IFN-γ, IL-2 3×10^5 IU/kg/day)): 1.6 ± 0.2
X ± SD (stimulation index) (T lymphocyte; peptide 50 μg/kg/day i.p. 15 days (IFN-γ, IL-2 3×10^5 IU/kg/day)): 1.7 ± 0.2
X ± SD (stimulation index) (T lymphocyte; peptide 500 μg/kg/day i.p. 15 days (IFN-γ, IL-2 3×10^5 IU/kg/day)): 1.6 ± 0.2
activity of T lymphocyte in secreting IFN, X ± SD (IU) (interferon (IFN)): 139 ± 16 IU and 125 ± 18 IU and 124 ± 16 IU
weight of spleen (spleen index), X ± SD (%) (spleen; Table 28, peptide 5 μg/kg/day (so in the source) i.p. 15 days (IFN-γ, IL-2 3×10^5 IU/kg/day)): 0.50 ± 0.04%
weight of spleen (spleen index), X ± SD (%) (spleen; [2]): 0.50 ± 0.04%
Hemolysis index [1]: 60.5 ± 17.4
